Laboratory results published in patent US10689429B2, “Double-acylated GLP-1 compounds” (Novo Nordisk A/S, priority 2014, dated 2020).
*1 amine or outer side, *2 acyl side, *3 side chain or, on linkers, in order; H or OH if unused. Where no end group is shown, it is not given here. Side-chain parts run from the residue outwards. [ ]: non-standard residue; d: D form. The star is where a group is joined. Dodecanoyl(12-OPh(4-COOH)) = O=C(O)c1ccc(OCCCCCCCCCCCC(=O)*)cc1; 9‑(3-carboxyphenoxy)nonanoyl = O=C(O)c1cccc(OCCCCCCCCC(=O)*)c1; Undecanoyl(11-OPh(4-COOH)) = O=C(O)c1ccc(OCCCCCCCCCCC(=O)*)cc1; Decanoyl(10-(4-HOOC-PhO)) = O=C(O)c1ccc(OCCCCCCCCCC(=O)*)cc1; Decanoyl(10-O(3-COOH-Ph)) = O=C(O)c1cccc(OCCCCCCCCCC(=O)*)c1; γGlu = O=C(O)[C@H](CCC(=O)[*:2])N[*:1]; C14 diacid = O=C(O)CCCCCCCCCCCCC(=O)*; AEEA = NCCOCCOCC(=O)O; Aib = CC(C)(N)C(=O)O

How the values were obtained:
[1] = biological target: T1, human GLP-1 receptor (Homo sapiens, UniProt P43220); assay: In vitro potency, CRE luciferase reporter gene assay in BHK cells expressing the human GLP-1 receptor; assay type: cell-based; conditions: average of duplicates;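 further: firefly luciferase luminescence read after 3 h incubation at 37 °C, compounds tested in an eight-point series from 0.01 pM to 100 nM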
T1 construct: expressed in transfected cells; host or cells: membranes from BHK cells, parent line BHKTS13, clone FCW467-12A
Target sequence in this assay (P43220 24-463): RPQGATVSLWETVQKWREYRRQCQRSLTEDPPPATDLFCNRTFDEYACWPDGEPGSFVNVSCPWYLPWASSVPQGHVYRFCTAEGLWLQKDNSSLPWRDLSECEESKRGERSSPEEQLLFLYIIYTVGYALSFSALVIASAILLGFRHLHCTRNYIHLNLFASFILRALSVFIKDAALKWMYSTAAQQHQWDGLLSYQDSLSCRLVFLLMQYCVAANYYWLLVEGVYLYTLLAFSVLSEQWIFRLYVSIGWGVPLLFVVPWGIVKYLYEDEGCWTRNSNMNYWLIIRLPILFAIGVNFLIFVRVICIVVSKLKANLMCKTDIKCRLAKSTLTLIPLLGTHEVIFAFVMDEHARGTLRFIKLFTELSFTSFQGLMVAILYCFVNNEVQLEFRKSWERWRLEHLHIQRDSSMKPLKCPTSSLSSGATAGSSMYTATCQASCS
Experimental: The in vitro potency is the measure of human GLP-1 receptor activation in a whole cell assay.
In vitro potency was determined by measuring the response of the human GLP-1 receptor in a reporter gene assay. The assay was performed in a stably transfected BHK cell line that expresses the human GLP-1 receptor and contains the DNA for the cAMP response element (CRE) coupled to a promoter and the gene for firefly luciferase (CRE luciferase). When the human GLP-1 receptor is activated it results in the production of cAMP, which in turn results in the luciferase protein being expressed. When assay incubation is completed the luciferase substrate (luciferin) is added and the enzyme converts luciferin to oxyluciferin to produce bioluminescence. The luminescence is measured as the readout for the assay.
An increase of the in vitro potency, EC50 value, in the presence of serum albumin would indicate an affinity to serum albumin and represents a method to predict a protracted pharmacokinetic profile of the test substance in animal models.
The cells were cultured at 5% CO2 in Cell Culture Medium. They were aliquoted and stored in liquid nitrogen. Before each assay an aliquot is taken up and washed twice in PBS before being suspended at the desired concentration in the assay specific buffer. For 96-well plates the suspension was made to give a final concentration of 5×10^3 cells/well.
Assay Medium consisted of DMEM w/o phenol red, 10 mM Hepes and 1× Glutamax. The 1% Assay Buffer consisted of 2% ovalbumin, 0.2% Pluronic F-68 and 2% HSA in Assay Medium. The 0% Assay Buffer consisted of 2% ovalbumin and 0.2% Pluronic F-68 in Assay Medium.
1) Cell stocks were thawed in a 37° C. water bath.
2) Cells were washed three times in PBS.
3) The cells were counted and adjusted to 5×10^3 cells/50 μl (1×10^5 cells/ml) in Assay Medium. A 50 μl aliquot of cells was transferred to each well in the assay plate.
4) Stocks of the test compounds and reference compounds were diluted to a concentration of 0.2 pM in 0% Assay Buffer for the 0% HSA CRE luciferase assay and 1% Assay Buffer for the 1% HSA CRE luciferase assay. […] Compounds were tested at the following final concentrations: 1×10^−7 M, 1×10^−8 M; 1×10^−9 M, 1×10^−10 M, 1×10^−11 M, 1×10^−12 M, 1×10^−13 M, and 1×10^−14 M. 6) The assay plate was incubated for 3 h in a 5% CO2 incubator at 37° C. […] 8) A 100 μl aliquot of steadylite plus reagent was added to each well of the assay plate (reagent was light sensitive). 9) Each assay plate was covered with aluminum foil to protect it from light and shaken for 30 min at room temperature. 10) Each assay plate was read in a Packard TopCount NXT instrument. Calculations and Results
The data from the TopCount instrument were transferred to GraphPad Prism software. The software performs a non-linear regression (log(agonist) vs response).
A minimum of two replicates was measured for each sample on separate assay plates. The reported values are averages of the duplicates. For some examples more than one assay was run and in this case the data reported are the averages of the averaged duplicates.

[2] = biological target: T1, human GLP-1 receptor; assay: GLP-1 receptor binding, competitive 125I-GLP-1 SPA binding assay on isolated membranes; conditions: IC50/nM (low HSA), low HSA (max. 0.001% final assay concentration)
[3] = biological target: T2, human GLP-1 receptor (human, UniProt P43220)
Target sequence in this assay (P43220 24-463): as above

[4] = biological target: T2, human GLP-1 receptor; assay: displacement of [125I]-GLP-1-(7-36)NH2 from membranes with human GLP-1 receptor, SPA, high HSA (2.0%)
[5] = EC50/pM (1% HSA), 1% HSA final assay concentration

| Molecule | EC50 ([1]; EC50/pM (0% HSA), 0% HSA) [pM] | EC50 [1, 5] [pM] | IC50 [2] [nM] | EC50/pM (0% HSA) [3] [pM] | EC50/pM (1% HSA) [3] [pM] | IC50 [4] [nM] |
| --- | --- | --- | --- | --- | --- | --- |
| CC[C@H](C)[C@H](NC(=O)[C@H](Cc1ccccc1)NC(=O)[C@H](CCC(=O)O)NC(=O)[C@H](CCCNC(=N)N)NC(=O)[C@H](C)NC(=O)[C@H](C)NC(=O)[C@H](CCC(N)=O)NC(=O)[C@H](CCC(=O)O)NC(=O)[C@H](CCC(=O)O)NC(=O)[C@H](CC(C)C)NC(=O)[C@H](Cc1ccc(O)cc1)NC(=O)[C@H](CO)NC(=O)[C@H](CO)NC(=O)[C@@H](NC(=O)[C@H](CC(=O)O)NC(=O)[C@H](CO)NC(=O)[C@@H](NC(=O)[C@H](Cc1ccccc1)NC(=O)[C@@H](NC(=O)CNC(=O)[C@H](CCC(=O)O)NC(=O)C(C)(C)NC(=O)[C@@H](N)Cc1c[nH]cn1)[C@@H](C)O)[C@@H](C)O)C(C)C)C(=O)N[C@@H](C)C(=O)N[C@@H](Cc1c[nH]c2ccccc12)C(=O)N[C@@H](CC(C)C)C(=O)N[C@H](C(=O)N[C@@H](CCCNC(=N)N)C(=O)NCC(=O)N[C@@H](CCCCNC(=O)COCCOCCNC(=O)COCCOCCNC(=O)CC[C@H](NC(=O)CCCCCCCCOc1cccc(C(=O)O)c1)C(=O)O)C(=O)N[C@@H](CCCCNC(=O)COCCOCCNC(=O)COCCOCCNC(=O)CC[C@H](NC(=O)CCCCCCCCOc1cccc(C(=O)O)c1)C(=O)O)C(=O)O)C(C)C [Example 23, N{Epsilon-36}-[2-[2-[2-[[2-[2-[2-[[(4S)-4-carboxy-4-[9-(3-carboxyphenoxy)nonanoylamino]butanoyl]amino]ethoxy]ethoxy]acetyl]amino]ethoxy]ethoxy]acetyl], N{Epsilon-37}-[2-[2-[2-[[2-[2-[2-[[(4S)-4-carboxy-4-[9-(3-carboxyphenoxy)nonanoylamino]butanoyl]amino]ethoxy]ethoxy]acetyl]amino]ethoxy]ethoxy]acetyl]-[Aib8,Glu22,Arg26,Arg34,Lys36,Lys37]-GLP-1-(7-37)-peptide] | 7.7 | 15 | 0.29 |  |  |  |
| CC[C@H](C)[C@H](NC(=O)[C@H](Cc1ccccc1)NC(=O)[C@H](CCC(=O)O)NC(=O)[C@H](CCCNC(=N)N)NC(=O)[C@H](C)NC(=O)[C@H](C)NC(=O)[C@H](CCC(N)=O)NC(=O)[C@H](CCC(=O)O)NC(=O)[C@H](CCC(=O)O)NC(=O)[C@H](CC(C)C)NC(=O)[C@H](Cc1ccc(O)cc1)NC(=O)[C@H](CO)NC(=O)[C@H](CO)NC(=O)[C@@H](NC(=O)[C@H](CC(=O)O)NC(=O)[C@H](CO)NC(=O)[C@@H](NC(=O)[C@H](Cc1ccccc1)NC(=O)[C@@H](NC(=O)CNC(=O)[C@H](CCC(=O)O)NC(=O)C(C)(C)NC(=O)[C@@H](N)Cc1c[nH]cn1)[C@@H](C)O)[C@@H](C)O)C(C)C)C(=O)N[C@@H](C)C(=O)N[C@@H](Cc1c[nH]c2ccccc12)C(=O)N[C@@H](CC(C)C)C(=O)N[C@H](C(=O)N[C@@H](CCCNC(=N)N)C(=O)NCC(=O)N[C@@H](CCCCNC(=O)COCCOCCNC(=O)COCCOCCNC(=O)CC[C@H](NC(=O)CCCCCCCCCCCOc1ccc(C(=O)O)cc1)C(=O)O)C(=O)N[C@@H](CCCCNC(=O)COCCOCCNC(=O)COCCOCCNC(=O)CC[C@H](NC(=O)CCCCCCCCCCCOc1ccc(C(=O)O)cc1)C(=O)O)C(=O)O)C(C)C [Example 26, N{Epsilon-36}-[2-[2-[2-[[2-[2-[2-[[(4S)-4-carboxy-4-[12-(4-carboxyphenoxy)dodecanoylamino]butanoyl]amino]ethoxy]ethoxy]acetyl]amino]ethoxy]ethoxy]acetyl], N{Epsilon-37}-[2-[2-[2-[[2-[2-[2-[[(4S)-4-carboxy-4-[12-(4-carboxyphenoxy)dodecanoylamino]butanoyl]amino]ethoxy]ethoxy]acetyl]amino]ethoxy]ethoxy]acetyl]-[Aib8,Glu22,Arg26,Arg34,Lys36,Lys37]-GLP-1-(7-37)-peptide] | 1.5 | 124 | 0.29 |  |  |  |
| H[Aib]EGTFTSDVSSYLEEQAAREFIAWLVQGK([AEEA-AEEA-γGlu-Undecanoyl(11-OPh(4-COOH))])K([AEEA-AEEA-γGlu-Undecanoyl(11-OPh(4-COOH))]) [GLP-1 derivative of Example 7] |  |  |  | 1.5 | 143 | 233 |
| H[Aib]EGTFTSDVSSYLEEQAAREFIAWLVRGK([AEEA-AEEA-γGlu-Dodecanoyl(12-OPh(4-COOH))])K([AEEA-AEEA-γGlu-Dodecanoyl(12-OPh(4-COOH))]) [GLP-1 derivative of Example 26] |  |  |  | 1.5 | 124 | 360 |
| H[Aib]EGTFTSDVSSYLEEQAAREFIAWLVRGK([AEEA-AEEA-γGlu-C14 diacid])K([AEEA-AEEA-γGlu-C14 diacid]) [GLP-1 derivative of Example 5] |  |  |  | 1.1 | 22 | 144 |
| H[Aib]EGTFTSDVSSYLEEQAAREFIAWLVRGK([AEEA-γGlu-γGlu-C14 diacid])K([AEEA-γGlu-γGlu-C14 diacid]) [GLP-1 derivative of Example 13] |  |  |  | 1.3 | 18 | 201 |
| H[Aib]EGTFTSDVSSYLEEQAAREFIEWLVRGK([AEEA-AEEA-AEEA-AEEA-γGlu-Decanoyl(10-O(3-COOH-Ph))])K([AEEA-AEEA-AEEA-AEEA-γGlu-Decanoyl(10-O(3-COOH-Ph))]) [GLP-1 derivative of Example 28] |  |  |  | 12 | 25 | 173 |
| H[Aib]EGTFTSDVSSYLEEQAAREFIAWLVRGK([AEEA-AEEA-AEEA-γGlu-C14 diacid])K([AEEA-AEEA-AEEA-γGlu-C14 diacid]) [GLP-1 derivative of Example 12] |  |  |  | 1.2 | 10 | 70 |
| H[Aib]EGTFTSDVSSYLEEQAAREFIAWLVRGK([AEEA-AEEA-γGlu-9‑(3-carboxyphenoxy)nonanoyl])K([AEEA-AEEA-γGlu-9‑(3-carboxyphenoxy)nonanoyl]) [GLP-1 derivative of Example 23] |  |  |  | 7.7 | 15 | 193 |
| H[Aib]EGTFTSDVSSYLEEQAAREFIAWLVRGK([AEEA-AEEA-γGlu-Decanoyl(10-(4-HOOC-PhO))])K([AEEA-AEEA-γGlu-Decanoyl(10-(4-HOOC-PhO))]) [GLP-1 derivative of Example 3] |  |  |  | 1.2 | 28 | 77 |
